Assay [1] concerns the target T1, N-terminally FLAG-tagged mouse Ang2 (HEK293T conditioned medium) (mouse, UniProt O35608 19-496).
T1 construct: may be a nucleotide entry; also called mAng2; FLAG-mAng2
T1 sequence: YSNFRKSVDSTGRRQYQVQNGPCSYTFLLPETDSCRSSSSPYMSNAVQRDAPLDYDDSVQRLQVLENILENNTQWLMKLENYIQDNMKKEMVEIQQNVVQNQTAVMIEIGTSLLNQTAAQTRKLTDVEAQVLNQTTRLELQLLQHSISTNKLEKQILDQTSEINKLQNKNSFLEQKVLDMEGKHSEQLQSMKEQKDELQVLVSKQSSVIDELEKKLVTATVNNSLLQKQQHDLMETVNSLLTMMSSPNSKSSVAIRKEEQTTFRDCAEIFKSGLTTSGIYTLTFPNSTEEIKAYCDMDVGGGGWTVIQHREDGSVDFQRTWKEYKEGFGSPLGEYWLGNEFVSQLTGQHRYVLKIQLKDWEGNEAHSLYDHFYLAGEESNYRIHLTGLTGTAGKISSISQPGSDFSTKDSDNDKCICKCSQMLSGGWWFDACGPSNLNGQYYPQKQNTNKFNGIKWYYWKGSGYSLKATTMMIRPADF
Kind of assay: competition ELISA, FLAG-mAng2 on coated mTie2-Fc. As for the experimental part:
(§1) In brief, 2 μg/mL of recombinant mouse Tie2-Fc or cyno Tie2-Fc is coated overnight at 4° C. in a 96-well MaxiSorp plate (Nunc, Wiesbaden, Germany). Coated wells are blocked with a 1% casein solution.

Assay [2] addresses T1, N-terminally FLAG-tagged mouse Ang2 …. Description: competition ELISA, periplasmic extract, FLAG-mAng2 on mTie2/Fc. As for the experimental part: In brief, human Tie2/Fc chimera (R&D Systems, Minneapolis, Minn., USA) is biotinylated using N-hydroxysulfosuccinimide ester of biotin (Thermo Fisher Scientific, Rockford, Ill., USA). […] To this mixture, the Acceptor beads and 0.3 nM biotinylated human Tie2/Fc chimeras are added and further incubated for 2 hours at room temperature. Finally, streptavidin conjugated Donor beads (Perkin Elmer, Waltham, Mass., US) are added and the mixture is incubated for an additional 2 hours at room temperature. Assay buffer is PBS+0.03% Tween-20+0.1% BSA. Fluorescence is measured using the Envision Multilabel Plate reader (Perkin Elmer, Waltham, Mass., USA) using an excitation wavelength of 680 nm and an emission wavelength of 520 nm. […] In brief, human or mouse Tie2/Fc chimera (R&D Systems, Minneapolis, Minn., USA) are immobilized at 2 μg/mL overnight at 4° C. in a 96-well MaxiSorp plate (Nunc, Wiesbaden, Germany). Wells are blocked with a 1% casein solution. […] This mixture is added to the Tie2/Fc coated well and incubated for 2 hours at room temperature. Residual binding of Ang is detected using HRP-conjugated anti-FLAG M2 antibody (Sigma, St Louis, Mo., USA).
For orientation: An ELISA detects its analyte on a solid surface through an enzyme-linked reagent.

The target is the same in assay [3]. Description: competition ELISA, FLAG-mAng2 on coated mTie2-Fc. As for the experimental part:
as §1
This is another data set of the same source.

Assay [4] concerns the target T2, recombinant mouse Ang2-FLD (mouse, UniProt O35608 275-496, limits assumed).
T2 construct: domain: FLD
T2 sequence (looked up): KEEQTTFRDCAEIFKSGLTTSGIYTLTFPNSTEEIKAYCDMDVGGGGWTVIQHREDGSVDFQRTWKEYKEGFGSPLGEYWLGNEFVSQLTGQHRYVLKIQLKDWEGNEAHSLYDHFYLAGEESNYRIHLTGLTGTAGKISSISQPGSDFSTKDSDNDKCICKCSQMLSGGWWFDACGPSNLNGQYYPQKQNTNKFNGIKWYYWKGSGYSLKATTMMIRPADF
Kind of assay: SPR (Biacore T100), binder on CM5 chip, Ang2-FLD as analyte. How it is done: (§2) In brief, VHH and benchmark compounds are immobilized on a CM5 chip via amine coupling. […] Ang2-FLD species are allowed to associate for 2 min and to dissociate for 20 min at a flow rate of 45 μL/min. In between injections, the surfaces are regenerated with a 10 sec pulse of 25 mM NaOH and 60 sec stabilization period. Association/dissociation data are evaluated by fitting a 1:1 interaction model (Langmuir binding). The affinity constant KD is calculated from resulting association and dissociation rate constants kₐ and kd and are depicted in Table 8.
In general terms: Surface plasmon resonance follows binding to a sensor surface in real time, without labels.

Assay [5] deals with T3, recombinant cynomolgus Ang2-FLD (cynomolgus).
T3 construct: domain: FLD; also called cyno Ang2-FLD
Described as above. As for the experimental part: as §2

Assay [6] deals with T4, recombinant human Ang2-FLD (human, UniProt O15123 275-496, limits assumed).
T4 construct: domain: FLD; not used
T4 sequence (looked up): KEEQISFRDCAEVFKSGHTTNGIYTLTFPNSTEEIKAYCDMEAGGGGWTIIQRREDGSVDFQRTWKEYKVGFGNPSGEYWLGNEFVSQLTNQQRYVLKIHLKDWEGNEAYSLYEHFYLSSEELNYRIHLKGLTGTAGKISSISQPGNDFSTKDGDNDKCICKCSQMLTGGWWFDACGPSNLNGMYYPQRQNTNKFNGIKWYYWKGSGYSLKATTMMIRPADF
Described as above. As for the experimental part: as §2

Assay [7] deals with T5, N-terminally FLAG-tagged cynomolgus Ang2 (HEK293T conditioned medium) (cynomolgus, UniProt O15123 19-496 (human entry), limits assumed).
T5 construct: may be a nucleotide entry; also called cAng2; FLAG-cAng2
T5 chain: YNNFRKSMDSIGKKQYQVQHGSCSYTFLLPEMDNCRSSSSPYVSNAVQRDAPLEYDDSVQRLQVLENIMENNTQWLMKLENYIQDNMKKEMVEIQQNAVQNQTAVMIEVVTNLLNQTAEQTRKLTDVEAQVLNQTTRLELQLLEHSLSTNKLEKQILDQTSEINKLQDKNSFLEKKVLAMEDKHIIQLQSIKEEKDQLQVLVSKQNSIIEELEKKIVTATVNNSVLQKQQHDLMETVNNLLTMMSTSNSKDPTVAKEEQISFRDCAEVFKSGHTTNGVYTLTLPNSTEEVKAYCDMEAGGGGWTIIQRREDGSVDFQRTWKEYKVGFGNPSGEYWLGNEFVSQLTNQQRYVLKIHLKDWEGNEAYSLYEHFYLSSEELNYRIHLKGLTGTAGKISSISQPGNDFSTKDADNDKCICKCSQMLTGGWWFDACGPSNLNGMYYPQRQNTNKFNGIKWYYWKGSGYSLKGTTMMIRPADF
Description: competition ELISA, FLAG-cAng2 on coated cTie2-Fc. As for the experimental part: as §1

For assay [8], the target named is T6, FLAG-tagged mouse Ang2 (mouse, UniProt O35608 19-496).
T6 construct: N-terminally FLAG-tagged, conditioned medium of HEK293T cells; also called mAng2; FLAG-mAng2
T6 sequence: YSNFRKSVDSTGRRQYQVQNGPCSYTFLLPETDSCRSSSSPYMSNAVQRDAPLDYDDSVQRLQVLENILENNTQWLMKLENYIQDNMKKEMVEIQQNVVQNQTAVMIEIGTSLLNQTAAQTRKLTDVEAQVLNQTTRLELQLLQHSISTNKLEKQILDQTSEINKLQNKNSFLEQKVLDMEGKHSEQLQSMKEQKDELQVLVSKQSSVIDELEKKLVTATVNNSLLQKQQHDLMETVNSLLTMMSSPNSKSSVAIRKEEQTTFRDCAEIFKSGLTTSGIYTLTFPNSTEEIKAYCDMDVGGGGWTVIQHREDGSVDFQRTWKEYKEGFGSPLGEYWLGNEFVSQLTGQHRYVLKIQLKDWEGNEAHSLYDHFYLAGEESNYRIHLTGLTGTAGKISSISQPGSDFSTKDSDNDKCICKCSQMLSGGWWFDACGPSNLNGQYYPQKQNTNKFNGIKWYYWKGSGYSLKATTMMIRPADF
Description: competition ELISA: FLAG-mAng2 binding to coated mTie2-Fc. As for the experimental part: as §1

Assay [9] addresses T7, FLAG-tagged cynomolgus Ang2 (cynomolgus, UniProt O15123 19-496 (human entry), limits assumed).
T7 construct: N-terminally FLAG-tagged, conditioned medium of HEK293T cells; also called cAng2; FLAG-cAng2
T7 chain: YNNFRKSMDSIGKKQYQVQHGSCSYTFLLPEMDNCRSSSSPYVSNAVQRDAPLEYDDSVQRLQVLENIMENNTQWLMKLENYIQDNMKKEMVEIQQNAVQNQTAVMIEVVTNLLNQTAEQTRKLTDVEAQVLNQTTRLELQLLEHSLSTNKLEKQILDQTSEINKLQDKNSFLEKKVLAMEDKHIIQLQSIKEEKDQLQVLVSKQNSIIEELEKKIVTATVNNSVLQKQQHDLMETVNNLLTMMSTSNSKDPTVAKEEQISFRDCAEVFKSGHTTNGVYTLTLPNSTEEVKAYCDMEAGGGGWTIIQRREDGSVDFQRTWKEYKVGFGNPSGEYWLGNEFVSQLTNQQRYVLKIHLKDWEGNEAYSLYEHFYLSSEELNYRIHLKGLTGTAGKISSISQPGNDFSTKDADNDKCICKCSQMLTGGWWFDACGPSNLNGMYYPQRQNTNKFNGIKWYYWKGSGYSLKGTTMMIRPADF
Kind of assay: competition ELISA: FLAG-cAng2 binding to coated cTie2-Fc. How it is done: as §1

For assay [10], the target named is T7, FLAG-tagged cynomolgus Ang2. Described as above. As for the experimental part:
as §1

Where two headings read alike, the source gives them in different places.

B1: VHH 22C07 (VHH)
VHH: EVQLVESGGGLVQAGGSLRLSCAASGFTFDDYAIGWFRQAPGKEREGVSCISSSDGSTYYADSVKGRFTISSDNAKNTVYLQMNSLKPEDTAVYYCAADFIISSKRLCLDLFGSRGQGTQVTVSS
notes: also called 022C07; not shown: C-terminal c-myc tag and His6 tag
Broadly, the IC50 is the point on the concentration scale where inhibition reaches its midpoint. A higher IC50 goes with weaker potency. For B1, the half-inhibitory concentration (IC50) in [1] came to 13.6 nM. Besides, the “% inh” value in [2] turned out to be 82%.

B2: VHH 32H10 (VHH)
VHH: EVQLVESGGGLVQAGGSLRLSCAASGFDFEDYDMGWFRQAPGKEREGVSYISSSDGSTYYTDSVKGRFTISSDNAKNTVYLQMNSLIPEDTAVYYCAARPWTRRVYGSSWLARSLDEYEYDYWGQGTQVTVSS
notes: also called 032H10; not shown: C-terminal c-myc tag and His6 tag
In turn, B2 had an IC50 in assay [3] of 13 nM. In [2], the “% inh” value was 58%.

B3: VHH 13A02 (VHH)
VHH: EVQLVESGGGLVQAGGSLRLSCAASGGTFSSYSMGWFRQAPGKEREFIAAINWNGDSTYYEDSVKGRFTVSRDNAKNTVYLQMNSLKPEDTAVYYCAATGWGRAYEQAYEYDVWGQGTQVTVSS
notes: also called 013A02; not shown: C-terminal c-myc tag and His6 tag
For orientation: Kd means the concentration at which binding is half-saturated. What is called koff is a measure of how fast the partners let go of each other. The term kon denotes the second-order rate constant of association. Take B3: the IC50 was 26.6 nM in assay [3], 6.1 nM in [1] and 33.1 nM in assay [7]. In addition, the Kd turned out to be 18 nM in assay [4], 8.7 nM in [5] and 9.9 nM in [6]. Further, the koff in [4] worked out at 0.034 s⁻¹; in [5], 0.094 s⁻¹; in assay [6], 0.091 s⁻¹. Besides, the figures for the kon in assay [4], in [5] and in assay [6] were 1.9e+06 M⁻¹ s⁻¹, 1.1e+07 M⁻¹ s⁻¹ and 9.2e+06 M⁻¹ s⁻¹, respectively. Moreover, the “% inh” value in assay [2] was 97%.

B4: VHH 8A11 (VHH)
VHH: EVQLVESGGGLVQAGGSLRLSCAASGRTFSSYAMGWFRQAPGKELEFVTAVSWSGGSTYYADSVKGRFTISRDSAKNTVYLQMNSLKPEDTAVYYCAAQSTIVEVTTLEAYDYWGQGTQVTVSS
notes: also called 008A11; not shown: C-terminal c-myc tag and His6 tag
In assay [1], B4 had an IC50 of 442 nM. Further, in assay [2], the “% inh” value worked out at 13%.

B5: VHH 00920 (VHH, not shown: small tags and cut ends)
VHH: EVQLVESGGGLVQPGGSLRLSCAASGFALDYYAIGWFRQAPGKEREGVSCISSSGGITYYADSVKGRFTISRDNSKNTVYLQMNSLRPEDTAVYYCATDSGGYIDYDCMGLGYDYWGQGTLVTVSS
For B5, the IC50 in [8] is 0.15 nM; in [9], 0.23 nM.

B6: VHH 00937 (VHH, not shown: small tags and cut ends)
VHH: EVQLVESGGGLVQPGGSLRLSCAVSGITLDDYAIGWFRQAPGKEREGVSAIRESGGSTYYADSVKGRFTISSDNSKNTVYLQMNSLRPEDTAVYYCAAVPAGRLRYGEQWYPIYEYDAWGQGTLVTVSS
notes: Cycle 3 variant of 28D10 on the 00908 backbone
B6 displayed an IC50 in assay [10] of 0.085 nM.
